In publication PMC3172256:

Target: CD16.7-PC1-WT (human) (UniProt P08637)
Assay: co-IP

Row | Substance | fold coprecipitation above the background of untransfected cell lysates [fold]
1 | Rab11, human, endogenous (from UniProt P62491 1-216) (natural protein) | 1.3
2 | Rab8, human, endogenous (from UniProt P61006 1-207) (natural protein) | 2
